Test [1] deals with CXCR4 (Fusin), human (human) (UniProt P61073). Briefly: flow cytometry, MOLT-4 cells. Background: Flow cytometry measures light scatter and fluorescence of single cells or particles in a stream.
Test [2] has the same target. Briefly: FACS, 10 µg/ml 12G5, Daudi cells chronically infected by HIV-2/vcp; loss of surface Fusin or blocking of the epitope not told apart.
For test [3] the target is unchanged. As to the kind of experiment: Scatchard analysis of 125I-12G5 binding; BC7 cells.
Test [4] has the same target. As to the kind of experiment: flow cytometry, HeLa/CD4 cells.
The target is the same in test [5]. As to the kind of experiment: FACS, 10 µg/ml 12G5, BC7 cells chronically infected by HIV-2/vcp; loss of surface Fusin or blocking of the epitope not told apart.
For test [6] the target is unchanged. As to the kind of experiment: cell-based or functional assay.
For test [7], the target named is HA-tagged CXCR4 (HA-tagged Fusin) on CHO-K1 cells (influenza; human) (UniProt P61073). Briefly: Scatchard analysis of 125I-12G5 binding; CHO cells expressing HA-tagged Fusin.
For test [8], the target named is CXCR4 (Fusin), human (human) (UniProt P61073). As to the kind of experiment: Scatchard analysis of 125I-12G5 binding; RD cells.
The target of test [9] is HA-tagged CXCR4 (HA-tagged Fusin) on CHO-K1 cells (influenza; human) (UniProt P61073). As to the kind of experiment: Scatchard analysis of 125I-12G5 surface binding at 4 C; CHO cells expressing HA-tagged Fusin.
Test [10] has as its target CXCR4 (Fusin), human (human) (UniProt P61073). As to the kind of experiment: FACS, 10 µg/ml 12G5, Nalm6 cells chronically infected by HIV-2/vcp; loss of surface Fusin or blocking of the epitope not told apart.
Test [11] shares this target. Briefly: flow cytometry, Sup T1 cells.
Test [12] has the same target. As to the kind of experiment: FACS, 10 µg/ml 12G5, Sup-T1 cells infected by HIV-2/vcp.
The target is the same in test [13]. As to the kind of experiment: flow cytometry, MT-2 cells.
Test [14] has the same target. As to the kind of experiment: flow cytometry, PBMC cultured 5 days, average of 10 batches.
The target is the same in test [15]. As to the kind of experiment: flow cytometry, RD/CD4 cells.
Test [16] shares this target. As to the kind of experiment: flow cytometry, Daudi/CD4 cells.
The target is the same in test [17]. Briefly: flow cytometry, macrophages cultured 5 days, average of 3 batches.
Test [18] shares this target. As to the kind of experiment: flow cytometry, C8166 cells.
The target is the same in test [19]. Briefly: flow cytometry, H9 cells.
Test [20] shares this target. As to the kind of experiment: Scatchard analysis of 125I-12G5 surface binding at 4 C; RD or BC7 cells (endogenous CXCR4).

For orientation: Kd means the equilibrium constant for the complex coming apart. With MAb 12G5 (antibody), the percentage of cells expressing CXCR4 by 12G5 staining in [1] was 89.5%; in test [4] it was 35.5%; in [11], 81.5%; in test [13], 99%; in test [14], 27.8%; in test [15], 93.3%. For the same substance, the percentage of cells expressing CXCR4 by 12G5 staining in [16] is 88.4%; in [17], 5.2%; in test [18] it was 72%; in [19], 51.4%. The percent reduction of 12G5 binding on HIV-2/vcp-infected against uninfected cells in [2] was determined as 79%; in [5] it was 98%; in test [10], 87%; in [12] it was 75%. Moreover, the antibody molecules bound per cell (antibody molecules per cell) in [3] came out at 50000; in test [7] it was 1e+06; in [8], 400000. This substance had an antibody concentration required to inhibit HIV-2/vcp infection of CD4-negative BC7, Nalm6 and Daudi cells (RT activity) in [6] of 5 to 20 µg/mL. Also, in test [6], the antibody concentration that inhibited CP-MAC infection of Sup-T1 cells (RT activity) turned out to be 1 µg/mL. Further, the Kd in [9] and in test [20] was 1 to 5 nM in each case.

Source of the values: patent USRE39057.
